Reference: patent US20210030885A1, “HUMANIZED ANTI-LIV1 ANTIBODIES FOR THE TREATMENT OF CANCER” (priority 2019, published 2021)
Marks after values point to notes of the source that are not given here.

What was measured:
patients = experiment: Adverse event incidence with previous LV dosing regimen 2.5 mg/kg Q3W; format: in vivo, human; conditions: n = 65
[1] = Chemical and physical stability of the reconstituted drug product; format: physicochemical; conditions: at 2-8° C. and at room temperature
Protocol: When reconstituted with 8.8 mL Water for Injection (WFI), US Pharmacopeia (USP), the concentration of reconstituted LV product is 5 mg/mL. The reconstituted drug product is a clear to slightly opalescent, colorless to light yellow solution with no visible particulate matter. The pH is approximately 6.0. The reconstituted solution is subsequently diluted in sterile 0.9% Sodium Chloride for Injection, USP, for IV administration.
If not used immediately, the in-use storage should not be longer than 24 hours under refrigeration at 2-8° C. The prepared dosing solution (reconstituted drug product solution and saline dilution in an IV bag or polypropylene syringe) should be administered within 8 hours after exposing to ambient temperature and light condition.

[2] = Drug to antibody ratio (DAR) of ADC in blood samples after LV administration, Q3W; format: in vivo, human; conditions: Q3W dosing
Protocol: In order to investigate pharmacokinetics of ADC species with different DARs under the previous tri-weekly dosing scheme (Q3W) versus a weekly dosing scheme (Q1W), LV was administered to subjects accordingly, and the pharmacokinetics of ADC species with different DARs were simulated.
Breast cancer patients were treated with ladiratuzumab vedotin (LV).
LV was administered by 30 minute intravenous (IV) infusion under a Q3W interval.
Following administration of LV, subject blood samples were collected at pre-dose, end of infusion, 2 hrs, 4 hrs, 8 hrs, 1 day, 3 days, 7 days, and 14 days after administration. The concentrations of the antibody-drug conjugate (ADC) was measured, and the drug to antibody ratio (DAR) of each species (DAR8, DAR7, DAR6, DARS, DAR4, DAR3, DAR2, DAR1 and DAR0) of the ADCs collected in blood samples was also analyzed. […] Using computer-assisted modeling, where decrease in average DAR was established previously, i.e. from 4 (on Day 0) to 1 (on Day 7) under Q3W, the pharmacokinetics were simulated for (i) ADCs with DARs≥4, or (ii) ADCs with DAR of between 2 and 3 (FIGS. 3B, C respectively) when LV was administered at a dose of 1 mg/kg on Day 1 of each 7-day cycle (Q1W) or at a dose of 3 mg/kg on Day 1 of each 21-day cycle (Q3W). […]

[3] = Observed pharmacokinetics of ADC and MMAE after LV Q1W or Q3W dosing; format: in vivo, human
Protocol: To investigate if fractionated dosing could increase treatment efficacy or reduce the number and severity of adverse events, various fractionated dosing schemes of ladiratuzumab vedotin (LV) were tested to measure for changes in Cmax, Ctrough, and AUC at similar total dose intensities and exposure.
Breast cancer patients were treated with (LV).
LV was administered as 30-minute IV infusion at the indicated interval. […]

[4] = MMAE, LV 1.0 mg/kg weekly (obs.), n = 4, geometric mean (CV %)
[5] = MMAE, LV 2.5 mg/kg q3wk (obs.), geometric mean (CV %)

ladiratuzumab vedotin [LV]
Adverse event incidence: Abdominal Pain (patients): 18 (28%) | Adverse event incidence: Alopecia (patients): 22 (34%) | Adverse event incidence: Constipation (patients): 32 (49%) | Adverse event incidence: Decreased Appetite (patients): 29 (45%) | Adverse event incidence: Diarrhea (patients): 23 (35%) | Adverse event incidence: Fatigue (patients): 38 (59%) | Adverse event incidence: Hypokalemia (patients): 17 (26%) | Adverse event incidence: Nausea (patients): 32 (49%) | Adverse event incidence: Neutropenia (patients): 19 (29%) | Adverse event incidence: Peripheral Sensory Neuropathy (patients): 21 (32%) | Adverse event incidence: Vomiting (patients): 14 (22%) | Chemical and physical stability of the reconstituted drug product demonstrated for [1]: 24 h | DAR of ADCs in blood ([2]; Day 0): about 4 | DAR of ADCs in blood ([2]; Day 7): about 1 | AUC0-21 ([3]; ADC, 1.0 mg/kg weekly (obs.), n = 4, estimated from observed AUC0-7 d of Cycle 1 Dose #1 and Dose #3): 215.4* μg*day/mL | Cmax ([3]; ADC, 1.0 mg/kg weekly (obs.), n = 4, geo. mean (CV %)): 31.4 (25) μg/mL | Ctrough ([3]; ADC, 1.25 mg/kg weekly (obs.), n = 1): 7.64 µg/mL | AUC0-21 ([3]; ADC, 1.25 mg/kg weekly (obs.), n = 5, estimated from observed AUC0-7 d of Cycle 1 Dose #1 and Dose #3): 266.9* μg*day/mL | Cmax ([3]; ADC, 1.25 mg/kg weekly (obs.), n = 5, geo. mean (CV %)): 43.3 (31) μg/mL | AUC0-21 ([3]; ADC, 2.5 mg/kg q3wk (obs.), n = 97, geo. mean (CV %)): 210 (27) μg*day/mL | Cmax ([3]; ADC, 2.5 mg/kg q3wk (obs.), n = 131, geo. mean (CV %)): 85 (27) μg/mL | AUC0-21 ([3]; MMAE, LV 1.0 mg/kg weekly (obs.), n = 4, estimated from observed AUC0-7 d of Cycle 1 Dose #1 and Dose #3): 29.7* μg*day/mL | Cmax [3, 4]: 2.1 (61) μg/mL | Ctrough [3, 4]: 1.26(75) μg/mL | Ctrough ([3]; MMAE, LV 1.25 mg/kg weekly (obs.), n = 2, geometric mean (CV %)): 2.95(160) μg/mL | AUC0-21 ([3]; MMAE, LV 1.25 mg/kg weekly (obs.), n = 5, estimated from observed AUC0-7 d of Cycle 1 Dose #1 and Dose #3): 53.6* μg*day/mL | Cmax ([3]; MMAE, LV 1.25 mg/kg weekly (obs.), n = 5, geometric mean (CV %)): 3.74 (68) μg/mL | AUC0-21 [3, 5]: 50.3 (61) μg*day/mL | Cmax [3, 5]: 5.55 (56) μg/mL | Ctrough [3, 5]: 0.34 (80) μg/mL
